Measured values: IntAct's records for PubMed 20018686

B1: Serine/threonine-protein kinase BIK1 (Arabidopsis thaliana (Mouse-ear cress)), O48814 (parent)
chain: MGSCFSSRVKADIFHNGKSSDLYGLSLSSRKSSSTVAAAQKTEGEILSSTPVKSFTFNELKLATRNFRPDSVIGEGGFGCVFKGWLDESTLTPTKPGTGLVIAVKKLNQEGFQGHREWLTEINYLGQLSHPNLVKLIGYCLEDEHRLLVYEFMQKGSLENHLFRRGAYFKPLPWFLRVNVALDAAKGLAFLHSDPVKVIYRDIKASNILLDADYNAKLSDFGLARDGPMGDLSYVSTRVMGTYGYAAPEYMSSGHLNARSDVYSFGVLLLEILSGKRALDHNRPAKEENLVDWARPYLTSKRKVLLIVDNRLDTQYLPEEAVRMASVAVQCLSFEPKSRPTMDQVVRALQQLQDNLGKPSQTNPVKDTKKLGFKTGTTKSSEKRFTQKPFGRHLV
B2: Serine/threonine-protein kinase BIK1 (Arabidopsis thaliana (Mouse-ear cress)), O48814 (parent)
chain: B1 chain
partner: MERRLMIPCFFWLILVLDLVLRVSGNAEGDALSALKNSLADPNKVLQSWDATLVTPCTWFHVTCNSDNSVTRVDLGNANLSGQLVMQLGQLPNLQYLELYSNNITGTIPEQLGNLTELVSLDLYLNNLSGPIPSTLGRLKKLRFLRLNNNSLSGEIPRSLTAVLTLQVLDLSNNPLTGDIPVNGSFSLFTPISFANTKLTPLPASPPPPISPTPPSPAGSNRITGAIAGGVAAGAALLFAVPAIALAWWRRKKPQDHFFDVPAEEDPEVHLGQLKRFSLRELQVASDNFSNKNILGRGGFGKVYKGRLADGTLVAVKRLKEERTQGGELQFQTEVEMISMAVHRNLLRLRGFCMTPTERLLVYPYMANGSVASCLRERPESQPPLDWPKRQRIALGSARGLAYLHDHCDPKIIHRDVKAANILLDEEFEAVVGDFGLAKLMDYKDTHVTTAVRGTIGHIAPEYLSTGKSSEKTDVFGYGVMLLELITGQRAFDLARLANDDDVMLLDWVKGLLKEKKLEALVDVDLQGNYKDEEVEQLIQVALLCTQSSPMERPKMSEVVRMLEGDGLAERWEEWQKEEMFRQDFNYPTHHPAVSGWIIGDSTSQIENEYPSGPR

Variants of: B1
Conditions: with fls2_arath FLS2, Q9FL28
fls2_arath FLS2, Q9FL28, sequence (Q9FL28 whole entry): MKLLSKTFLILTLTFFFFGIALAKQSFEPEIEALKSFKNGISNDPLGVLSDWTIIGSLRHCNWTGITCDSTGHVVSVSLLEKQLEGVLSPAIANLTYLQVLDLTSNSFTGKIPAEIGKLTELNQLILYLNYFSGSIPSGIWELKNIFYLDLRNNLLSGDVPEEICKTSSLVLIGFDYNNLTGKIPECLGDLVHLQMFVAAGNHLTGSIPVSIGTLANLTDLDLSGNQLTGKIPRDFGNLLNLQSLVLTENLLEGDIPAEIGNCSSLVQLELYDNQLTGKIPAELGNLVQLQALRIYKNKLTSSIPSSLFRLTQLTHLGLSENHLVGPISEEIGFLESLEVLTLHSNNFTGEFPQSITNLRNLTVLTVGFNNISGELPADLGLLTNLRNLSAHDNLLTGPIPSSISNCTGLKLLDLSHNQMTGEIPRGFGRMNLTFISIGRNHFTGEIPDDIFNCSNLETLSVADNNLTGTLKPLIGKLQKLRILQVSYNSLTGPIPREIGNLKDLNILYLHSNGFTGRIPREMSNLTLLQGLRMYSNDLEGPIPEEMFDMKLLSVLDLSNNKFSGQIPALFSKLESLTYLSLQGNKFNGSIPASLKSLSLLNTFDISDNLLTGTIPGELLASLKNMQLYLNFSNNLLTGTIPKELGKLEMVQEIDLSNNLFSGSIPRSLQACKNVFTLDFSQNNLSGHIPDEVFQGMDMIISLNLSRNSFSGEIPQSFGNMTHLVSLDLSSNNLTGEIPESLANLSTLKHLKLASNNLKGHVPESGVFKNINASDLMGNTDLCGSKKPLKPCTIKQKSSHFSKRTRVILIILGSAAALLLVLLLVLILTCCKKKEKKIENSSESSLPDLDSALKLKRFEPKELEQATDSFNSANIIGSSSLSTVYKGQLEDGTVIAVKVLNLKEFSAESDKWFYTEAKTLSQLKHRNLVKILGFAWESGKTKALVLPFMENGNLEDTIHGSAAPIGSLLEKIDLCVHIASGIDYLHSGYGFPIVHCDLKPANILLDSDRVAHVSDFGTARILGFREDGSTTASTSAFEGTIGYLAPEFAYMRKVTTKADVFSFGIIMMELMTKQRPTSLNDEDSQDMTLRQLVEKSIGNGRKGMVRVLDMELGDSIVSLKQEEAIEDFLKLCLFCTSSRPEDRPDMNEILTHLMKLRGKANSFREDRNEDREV

| Variant | effect of a mutation on the interaction |
| --- | --- |
| T237A | disrupting interaction |

Variants of: B2
Conditions: with bak1_arath BAK1, Q94F62

| Variant | effect of a mutation on the interaction |
| --- | --- |
| T237A | disrupting interaction |
